Among the data in patent US20230346949A1, “A METHOD OF FORMING A CONJUGATE OF A SULFONAMIDE AND A POLYPEPTIDE” (SANOFI, priority 2019, published 2023) are Insulin-receptor binding affinity (relative to human insulin) (relative to human insulin), Autophosphorylation activity (relative to human insulin) and stability in solution values, retold here.

Data set [1] addresses human insulin receptor isoform B (human) (UniProt P06213). As to the kind of experiment: SPA competition with 100 pM [125I]-human insulin, membranes of CHO cells overexpressing IR.
For data set [2] the target is unchanged. Kind of data set: cell-based or functional assay.
Data set [3] is described as follows: Storage stability of the activated sulfonamide. It is filed as physicochemical. The following applies: acetonitrile solution under argon, 2 to 8° C. The protocol:
32.5 g 2-[2-[2-[[2-[2-[2-[[2-[[4-(16-tert-butoxy-16-oxo-hexadecoxy)phenyl]sulfonylamino]-pyrimidine-5-carbonyl]amino]ethoxy]ethoxy]acetyl]amino]ethoxy]ethoxy]acetic acid (sticky syrup) was dissolved in 305 ml dry acetonitrile. 305 ml dry ethyl acetate under an argon layer, 16.25 g (63.4 mmol) N,N-disuccinimidylcarbonat and 3.25 g (26.6 mmol) dimethylaminopyridine was added under stirring at room temperature (25° C.). After 90 minutes, the solvent was distilled off using a rotary evaporator and the remaining oily product was dissolved in 1.5 liters of ethyl acetate. The ethyl acetate solution was extracted three times, each time with 300 ml 0.1 N HCl and 300 ml saturated NaCl solution. The solvent was distilled off using a rotary evaporator, leaving again an oily product. The oily product was dissolved in 0.5 liters of ethyl acetate, the precipitated NaCl was filtered off and the ethyl acetate was distilled off. Next, 0.5 liters of ethyl acetate was added and the solvent was distilled off using a rotary evaporator. […] Yield in the acetonitrile solution was calculated from HPLC data as 78% based on the amount of 2-[2-[2-[[2-[2-[2-[[2[[4-(16-tert-butoxy-16-oxo-hexadecoxy)phenyl]sulfonylamino]-pyrimidine-5-carbonyl]amino]ethoxy]ethoxy]acetyl]amino]ethoxy]ethoxy]acetic acid used. […]

In data set [1], “Gly(A21)Trp(B16)Trp(B25)Des(B30)-Insulin (ligand)” came in with an Insulin-receptor binding affinity (relative to human insulin) (relative to human insulin) of 0.43. In data set [2], this molecule showed an Autophosphorylation activity (relative to human insulin) of 0.38.
For “Glu(A14)Gly(A21)Glu(B3)Ile(B16)Val(B25)Des(B30)-Insulin (ligand)” the same measures were 0.01 and 0.02.
Consider Val(B16)Des(B30)-Insulin (ligand), for which the Autophosphorylation activity (relative to human insulin) in data set [2] amounted to 0.32.
Regarding “Glu(A14)Glu(B3)Val(B16)Des(B30)-Insulin (ligand)”, the Insulin-receptor binding affinity (relative to human insulin) (relative to human insulin) in data set [1] worked out at 0.4. The same molecule showed an Autophosphorylation activity (relative to human insulin) in data set [2] of 0.28.
Consider Val(B25)Des(B30)-Insulin (ligand), for which the Autophosphorylation activity (relative to human insulin) in data set [2] is 0.06.
“His(B16)His(B25)Des(B30)-Insulin (ligand)” showed an Autophosphorylation activity (relative to human insulin) in data set [2] of 0.1.
The same measure, in the same setting: to “Glu(A14)Ile(B16)Val(B25)Des(B30)-Insulin (ligand)” belongs 0.04.
Molecule “Glu(A14)Glu(B16)His(B25)Des(B30)-Insulin (ligand)” had an Insulin-receptor binding affinity (relative to human insulin) (relative to human insulin) in data set [1] of 0.01. The Autophosphorylation activity (relative to human insulin) in data set [2] is 0.07.
The molecule Ala(B25)Des(B30)-Insulin (ligand) displayed an Autophosphorylation activity (relative to human insulin) in data set [2] of 0.17.
Same read-out and setting: as for Ala(B25)-Insulin (ligand), the figure is 0.2; as for Leu(B25)Des(B30)-Insulin (ligand), 0.06.
In the case of Leu(B16)Des(B30)-Insulin (ligand), the Autophosphorylation activity (relative to human insulin) in data set [2] stood at 0.34.
The molecule “Glu(A14)Gly(A21)Glu(B3)Ile(B16)Trp(B25)Des(B30)-Insulin (ligand)” came in with an Insulin-receptor binding affinity (relative to human insulin) (relative to human insulin) in data set [1] of 0.12. This molecule gave an Autophosphorylation activity (relative to human insulin) in data set [2] of 0.13.
“Glu(A14)Val(B25)Des(B30)-Insulin (ligand)”: the Autophosphorylation activity (relative to human insulin) in data set [2] is 0.04.
Turning to “Glu(A14)Glu(B3)Val(B16)Val(B25)Des(B30)-Insulin (ligand)”, the Autophosphorylation activity (relative to human insulin) in data set [2] came out at 0.02.
Same read-out and setting: as for “Glu(A14)Glu(B3)Ile(B16)Ile(B25)Des(B30)-Insulin (ligand)”, the figure is 0.01; as for “Glu(A14)Val(B16)Val(B25)Des(B30)-Insulin (ligand)”, 0.03.
In turn, “Glu(A14)Ile(B16)Des(B30)-Insulin (ligand)” had an Insulin-receptor binding affinity (relative to human insulin) (relative to human insulin) in data set [1] of 0.23. Further, the Autophosphorylation activity (relative to human insulin) in data set [2] was determined as 0.18.
“Glu(A14)His(B16)Des(B30)-Insulin (ligand)”: the Insulin-receptor binding affinity (relative to human insulin) (relative to human insulin) in data set [1] turned out to be 0.36. Moreover, the Autophosphorylation activity (relative to human insulin) in data set [2] amounted to 0.29.
The corresponding values for “Glu(A14)Gly(A21)Val(B16)Trp(B25)Des(B30)-Insulin (ligand)” are 0.17 and 0.23.
The corresponding values for “Gly(A21)Trp(B16)Des(B30)-Insulin (ligand)” are 0.57 and 0.4.
The corresponding values for “Glu(A14)Leu(B16)Ala(B25)Des(B30)-Insulin (ligand)” are 0.01 and 0.04.
Take “Gly(A21)Trp(B16)His(B25)Des(B30)-Insulin (ligand)”: the Insulin-receptor binding affinity (relative to human insulin) (relative to human insulin) in data set [1] came to 0.4. The Autophosphorylation activity (relative to human insulin) in data set [2] is 0.35.
As for `O=C(O)CCCCCCCCCCCCCCCOc1ccc(S(=O)(=O)Nc2ncc(C(=O)NCCOCCOCC(=O)NCCOCCOCC(=O)ON3C(=O)CCC3=O)cn2)cc1` [16-[4-[[5-[2-[2-[2-[2-[2-[2-(2,5-dioxopyrrolidin-1-yl)oxy-2-oxo-ethoxy]ethoxy]ethylamino]-2-oxo-ethoxy]ethoxy]ethylcarbamoyl]pyrimidin-2-yl]sulfamoyl]phenoxy]hexadecanoate], the stability in solution result in data set [3] was “less than 3 days”.
“Glu(A14)Gly(A21)Trp(B16)Des(B30)-Insulin (ligand)” showed an Insulin-receptor binding affinity (relative to human insulin) (relative to human insulin) in data set [1] of 0.63. Besides, the Autophosphorylation activity (relative to human insulin) in data set [2] worked out at 0.38.
Molecule “Glu(A14)Val(B16)Des(B30)-Insulin (ligand)” came in with an Autophosphorylation activity (relative to human insulin) in data set [2] of 0.32.
“Glu(A14)His(B16)His(B25)Des(B30)-Insulin (ligand)” displayed an Insulin-receptor binding affinity (relative to human insulin) (relative to human insulin) in data set [1] of 0.12. Further, the Autophosphorylation activity (relative to human insulin) in data set [2] came out at 0.11.
“Glu(A14)Ile(B25)Des(B30)-Insulin (ligand)”: the Autophosphorylation activity (relative to human insulin) in data set [2] was 0.04.
In turn, “Glu(A14)Gly(A21)Glu(B3)Val(B25)Des(B30)-Insulin (ligand)” showed an Insulin-receptor binding affinity (relative to human insulin) (relative to human insulin) in data set [1] of 0.02. Besides, the Autophosphorylation activity (relative to human insulin) in data set [2] stood at 0.03.
His(B25)Des(B30)-Insulin (ligand): the Autophosphorylation activity (relative to human insulin) in data set [2] was found to be 0.31.
The same measure, in the same setting: as for “Glu(A14)Val(B16)Ile(B25)Des(B30)-Insulin (ligand)”, the figure is 0.01.
“Glu(A14)Gly(A21)Glu(B3)Val(B16)Val(B25)Des(B30)-Insulin (ligand)” came in with an Insulin-receptor binding affinity (relative to human insulin) (relative to human insulin) in data set [1] of 0.01. Further, the Autophosphorylation activity (relative to human insulin) in data set [2] came out at 0.01.
“Glu(A14)Gly(A21)Glu(B3)Val(B16)Trp(B25)Des(B30)-Insulin (ligand)” yielded an Insulin-receptor binding affinity (relative to human insulin) (relative to human insulin) in data set [1] of 0.21. This molecule also gave an Autophosphorylation activity (relative to human insulin) in data set [2] of 0.19.
“Glu(A14)Gly(A21)Trp(B25)Des(B30)-Insulin (ligand)” gave an Autophosphorylation activity (relative to human insulin) in data set [2] of 0.37.
With Glu(A14)Des(B30)-Insulin (ligand), the Autophosphorylation activity (relative to human insulin) in data set [2] was found to be 0.87.
